Source: patent US20250127807A1, “TREATMENT OF VAGINAL DYSBIOTIC CONDITIONS WITH ASSOCIATED ELEVATED VAGINAL CALPROTECTIN” (priority 2022, published 2025)

Set-up: species or system women
Conditions: in vivo
Procedure: Elevated levels of calprotectin in BV and in L iners-dominated vaginal microbiomes sequester manganese and zinc, preventing growth of L crispatus its maintenance of a healthy vaginal microbiome. […] Six women each received 3 doses of formulation Z2 separated by 48 hours. Vaginal fluid swabs were collected at t=0, 2, 4, 8, 12, 18, 24, 30, 36, and 42 hours post dose and vaginal fluid concentrations of lactoferrin and mannitol were determined. Average concentrations for the combined 18 dose administrations were obtained based on calculation of Area Under Curve for the locally estimated scatterplot smoothing (Loess) profile of lactoferrin and mannitol concentrations assuming 6 mL volume of distribution. The average concentration of lactoferrin was 33 mg/mL and the average concentrations of mannitol was 20 mg/mL. Average concentrations of both substances correspond to 0.1 fraction or 10% of the administered dose, 300 mg lactoferrin and 195 mg mannitol per Z2 tablet respectively. The 0.1 factor was used to estimate the expected average elemental Mn concentration based on the initial dose per tablet.

B1: lactoferrin (protein, UniProt P24627 20-708, looked up)
Lactotransferrin: APRKNVRWCTISQPEWFKCRRWQWRMKKLGAPSITCVRRAFALECIRAIAEKKADAVTLDGGMVFEAGRDPYKLRPVAAEIYGTKESPQTHYYAVAVVKKGSNFQLDQLQGRKSCHTGLGRSAGWIIPMGILRPYLSWTESLEPLQGAVAKFFSASCVPCIDRQAYPNLCQLCKGEGENQCACSSREPYFGYSGAFKCLQDGAGDVAFVKETTVFENLPEKADRDQYELLCLNNSRAPVDAFKECHLAQVPSHAVVARSVDGKEDLIWKLLSKAQEKFGKNKSRSFQLFGSPPGQRDLLFKDSALGFLRIPSKVDSALYLGSRYLTTLKNLRETAEEVKARYTRVVWCAVGPEEQKKCQQWSQQSGQNVTCATASTTDDCIVLVLKGEADALNLDGGYIYTAGKCGLVPVLAENRKSSKHSSLDCVLRPTEGYLAVAVVKKANEGLTWNSLKDKKSCHTAVDRTAGWNIPMGLIVNQTGSCAFDEFFSQSCAPGADPKSRLCALCAGDDQGLDKCVPNSKEKYYGYTGAFRCLAEDVGDVAFVKNDTVWENTNGESTADWAKNLNREDFRLLCLDGTRKPVTEAQSCHLAVAPNHAVVSRSDRAAHVKQVLLHQQALFGKNGKNCPDKFCLFKSETKNLLFNDNTECLAKLGGRPTYEEYLGTEYVTAIANLKKCSTSPLLEACAFLTR
average concentration as fraction of the administered dose: 10%
